Self-cleavage data for 56 variants are collected here from the RNAGym collection of RNA variant scans (doi:10.7554/elife.90254).

Sequences and labels used below:
B1: LINE1-mini (parent)
chain: GGCAGAGCUCAACACAGCGUGGCAAAGUGGCUGUGGCUAGACUGCC

In this data set the parent is B1. In words: self-cleavage, relative activity (ratio to wild type); higher = more cleavage; in vitro, sequencing; the parent is a self-cleaving ribozyme.
As to UGCAGAGCUCAACACAGCGUGGCAAAAUGGCUGUGGCUAGACUGCC [G1U G27A], the self-cleavage amounted to 0.36.
To GACAGGGCUCAACACAGCGUGGCAAAGUGGCUGUGGCUAGACUGCC [G2A A6G] belongs 0.13.
The figure for GACAGCGCUCAACACAGCGUGGCAAAGUGGCUGUGGCUAGACUGCC [G2A A6C] is 0.33.
To GACAGUGCUCAACACAGCGUGGCAAAGUGGCUGUGGCUAGACUGCC [G2A A6U] belongs 1; to GACAGAGCUCAACACAGCGUGGCACAGUGGCUGUGGCUAGACUGCC [G2A A25C], 0.62; to GACAGAGCUCAACACAGCGUGGCAGAGUGGCUGUGGCUAGACUGCC [G2A A25G], 0.23.
Regarding GACAGAGCUCAACACAGCGUGGCAUAGUGGCUGUGGCUAGACUGCC [G2A A25U], the self-cleavage was determined as 0.65.
The figure for GACAGAGGUCAACACAGCGUGGCAAAGUGGCUGUGGCUAGACUGCC [G2A C8G] is 0.13; for GACAGAGAUCAACACAGCGUGGCAAAGUGGCUGUGGCUAGACUGCC [G2A C8A] it is 0.61.
GACAGAGUUCAACACAGCGUGGCAAAGUGGCUGUGGCUAGACUGCC [G2A C8U]: the self-cleavage is 0.43.
To GACAGAGCUCAACACAGCGUGGCAAAGUGGCUGUGGCUAGACUGCC [G2A] belongs 0.92; to UGCAGAGCUCAACACAGCGUGGCAAAGUGCCUGUGGCUAGACUGCC [G1U G30C], 0.27.
To UGCAGAGCUCAACACAGCGUGGCAAAGUGUCUGUGGCUAGACUGCC [G1U G30U] belongs 0.59; to UGCAGAGCUCAACACAGCGUGGCAAAGUGACUGUGGCUAGACUGCC [G1U G30A], 0.43; to GACAGAGCUCAACCCAGCGUGGCAAAGUGGCUGUGGCUAGACUGCC [G2A A14C], 0.15.
The figure for GACAGAGCUCAACGCAGCGUGGCAAAGUGGCUGUGGCUAGACUGCC [G2A A14G] is 0.81; for GACAGAGCUCAACUCAGCGUGGCAAAGUGGCUGUGGCUAGACUGCC [G2A A14U] it is 0.37.
On to UGCAGAACUCAACACAGCGUGGCAAAGUGGCUGUGGCUAGACUGCC [G1U G7A], for which the self-cleavage was found to be 0.11.
To UGCAGAUCUCAACACAGCGUGGCAAAGUGGCUGUGGCUAGACUGCC [G1U G7U] belongs 0.06.
The figure for UGCAGACCUCAACACAGCGUGGCAAAGUGGCUGUGGCUAGACUGCC [G1U G7C] is 0.12; for UGCAGAGCUCAACACAGCGUGGCAAAGUGGCUGUGGCUAGACAGCC [G1U U43A] it is 0.05.
The figure for UGCAGAGCUCAACACAGCGUGGCAAAGUGGCUGUGGCUAGACCGCC [G1U U43C] is 0.06; for UGCAGAGCUCAACACAGCGUGGCAAAGUGGCUGUGGCUAGACGGCC [G1U U43G] it is 0.07.
Turning to GACAGAGCUCAACACAGCGUGGCAAAGUGGCUGUGGCUUGACUGCC [G2A A39U], the self-cleavage is 0.76.
To GACAGAGCUCAACACAGCGUGGCAAAGUGGCUGUGGCUGGACUGCC [G2A A39G] belongs 0.22; to GACAGAGCUCAACACAGCGUGGCAAAGUGGCUGUGGCUCGACUGCC [G2A A39C], 0.54; to UGCAGAGCUCAACACAGCGUGGCAAAGCGGCUGUGGCUAGACUGCC [G1U U28C], 0.24.
To UGCAGAGCUCAACACAGCGUGGCAAAGAGGCUGUGGCUAGACUGCC [G1U U28A] belongs 0.15.
To UGCAGAGCUCAACACAGCGUGGCAAAGGGGCUGUGGCUAGACUGCC [G1U U28G] belongs 0.2; to GACAGAGCUCAUCACAGCGUGGCAAAGUGGCUGUGGCUAGACUGCC [G2A A12U], 0.41; to GACAGAGCUCAGCACAGCGUGGCAAAGUGGCUGUGGCUAGACUGCC [G2A A12G], 0.14.
Regarding GACAGAGCUCACCACAGCGUGGCAAAGUGGCUGUGGCUAGACUGCC [G2A A12C], the self-cleavage was 0.06.
To GACUGAGCUCAACACAGCGUGGCAAAGUGGCUGUGGCUAGACUGCC [G2A A4U] belongs 0.58.
The figure for GACGGAGCUCAACACAGCGUGGCAAAGUGGCUGUGGCUAGACUGCC [G2A A4G] is 0.42; for GACCGAGCUCAACACAGCGUGGCAAAGUGGCUGUGGCUAGACUGCC [G2A A4C] it is 0.67; for GAGAGAGCUCAACACAGCGUGGCAAAGUGGCUGUGGCUAGACUGCC [G2A C3G] it is 0.76.
To GAUAGAGCUCAACACAGCGUGGCAAAGUGGCUGUGGCUAGACUGCC [G2A C3U] belongs 0.9.
In the case of GAAAGAGCUCAACACAGCGUGGCAAAGUGGCUGUGGCUAGACUGCC [G2A C3A], the self-cleavage worked out at 1.93.
The figure for UGCAGAGCUCAACACAGCGUGGCAAAGUGGCUUUGGCUAGACUGCC [G1U G33U] is 0.06; for UGCAGAGCUCAACACAGCGUGGCAAAGUGGCUAUGGCUAGACUGCC [G1U G33A] it is 0.04; for UGCAGAGCUCAACACAGCGUGGCAAAGUGGCUCUGGCUAGACUGCC [G1U G33C] it is 0.03.
Take UGCAGAGCUCAACACAGCGUGGCAAAGUGGCUGUGGCUAGACUGUC [G1U C45U]: the self-cleavage was 0.38.
To UGCAGAGCUCAACACAGCGUGGCAAAGUGGCUGUGGCUAGACUGGC [G1U C45G] belongs 0.1; to UGCAGAGCUCAACACAGCGUGGCAAAGUGGCUGUGGCUAGACUGAC [G1U C45A], 0.26; to GACAGAGCUCAACACUGCGUGGCAAAGUGGCUGUGGCUAGACUGCC [G2A A16U], 0.33.
The figure for GACAGAGCUCAACACGGCGUGGCAAAGUGGCUGUGGCUAGACUGCC [G2A A16G] is 0.26.
The figure for GACAGAGCUCAACACCGCGUGGCAAAGUGGCUGUGGCUAGACUGCC [G2A A16C] is 0.16.
In the case of UGCAGAGCUCAACACAGCGUGGCAAAGUGGCCGUGGCUAGACUGCC [G1U U32C], the self-cleavage came out at 0.08.
Take UGCAGAGCUCAACACAGCGUGGCAAAGUGGCAGUGGCUAGACUGCC [G1U U32A]: the self-cleavage amounted to 0.06.
The figure for UGCAGAGCUCAACACAGCGUGGCAAAGUGGCGGUGGCUAGACUGCC [G1U U32G] is 0.05; for UCCAGAGCUCAACACAGCGUGGCAAAGUGGCUGUGGCUAGACUGCC [G1U G2C] it is 0.16.
For the variant UACAGAGCUCAACACAGCGUGGCAAAGUGGCUGUGGCUAGACUGCC [G1U G2A], the self-cleavage is 0.38.
The figure for UUCAGAGCUCAACACAGCGUGGCAAAGUGGCUGUGGCUAGACUGCC [G1U G2U] is 0.13; for UGCAGAGCUCAACACAGCGUGGCAAAGUGGCUGUUGCUAGACUGCC [G1U G35U] it is 0.17.
On to UGCAGAGCUCAACACAGCGUGGCAAAGUGGCUGUCGCUAGACUGCC [G1U G35C], for which the self-cleavage was determined as 0.07.
The figure for UGCAGAGCUCAACACAGCGUGGCAAAGUGGCUGUAGCUAGACUGCC [G1U G35A] is 0.08.
